From US20250042994A1 (HAINAN SIMCERE ZAIMING PHARMACEUTICAL, published 2025)

T1: Human CD19-his protein (human, UniProt P15391 20-291)
T1 construct: bought protein; also called human CD19 protein; recombinant human CD19-His; not shown: His tag
T1 sequence (looked up): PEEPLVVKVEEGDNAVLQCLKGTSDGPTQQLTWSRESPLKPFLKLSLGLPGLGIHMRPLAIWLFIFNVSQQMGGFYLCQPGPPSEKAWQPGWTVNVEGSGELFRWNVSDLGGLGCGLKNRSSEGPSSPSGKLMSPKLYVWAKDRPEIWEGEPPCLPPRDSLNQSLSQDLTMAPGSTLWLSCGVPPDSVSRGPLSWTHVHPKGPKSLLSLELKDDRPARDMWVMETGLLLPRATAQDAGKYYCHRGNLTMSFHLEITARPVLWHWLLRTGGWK

T2: human CD19 exon1-3-his protein (human, UniProt P15391 20-186, limits assumed)
T2 construct: made in HEK293E cells; also called membrane-distal end; not shown: His tag
T2 sequence (looked up): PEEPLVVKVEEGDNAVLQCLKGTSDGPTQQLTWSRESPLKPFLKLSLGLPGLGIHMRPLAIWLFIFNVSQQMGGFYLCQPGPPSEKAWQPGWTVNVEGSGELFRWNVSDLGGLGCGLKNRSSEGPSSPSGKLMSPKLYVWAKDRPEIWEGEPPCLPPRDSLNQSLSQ

T3: murine CD19 protein (murine, UniProt P25918 17-287, limits assumed)
T3 construct: bought protein; also called commercial murine CD19
T3 sequence (looked up): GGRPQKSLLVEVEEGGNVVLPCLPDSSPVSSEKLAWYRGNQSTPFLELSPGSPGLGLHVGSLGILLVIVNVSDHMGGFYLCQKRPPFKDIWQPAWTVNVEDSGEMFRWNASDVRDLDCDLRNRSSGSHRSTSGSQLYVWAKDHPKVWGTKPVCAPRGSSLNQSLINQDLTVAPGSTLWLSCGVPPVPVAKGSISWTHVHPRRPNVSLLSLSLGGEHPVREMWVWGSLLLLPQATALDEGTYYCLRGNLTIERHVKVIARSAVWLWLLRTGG


Tests used:
Human CD19-his protein [1] = target: T1, Human CD19-his protein; assay: ELISA, antibody at 0.01 nM
Human CD19-his protein [2] = target: T1, Human CD19-his protein; assay: ELISA, antibody at 0.10 nM
Human CD19-his protein [3] = target: T1, Human CD19-his protein; assay: ELISA, antibody at 0.0001 nM
Human CD19-his protein [4] = target: T1, Human CD19-his protein; assay: ELISA, antibody at 100 nM
[5] = target: T2, human CD19 exon1-3-his protein; assay: ELISA, coated at 2 ug/mL
Human CD19-his protein [6] = target: T1, Human CD19-his protein; assay: ELISA, antibody at 0.001 nM
Human CD19-his protein [7] = target: T1, Human CD19-his protein; assay: ELISA, antibody at 1.00 nM
Human CD19-his protein [8] = target: T1, Human CD19-his protein; assay: ELISA, antibody at 10 nM
murine CD19 protein = target: T3, murine CD19 protein; assay: ELISA, coated murine CD19
Procedure, shortened: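 Plates coated overnight at 4° C with recombinant murine or monkey CD19 and blocked with 2% BSA. Chimeric antibodies, serially diluted from 100 nM, bound for 2 h at 37° C. TMB development for 10 min with OD450 read-out.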

Human CD19-his protein [9] = target: T1, Human CD19-his protein; assay: ELISA on coated human CD19-His
Method: Human CD19-his protein (purchased from ACROBiosystems, catalog number: CD9-H52H2) was diluted with PBS to a final concentration of 4 μg/mL, and then added to a 96-well ELISA plate at 100 μl/well. The plate was sealed with a plastic film and incubated overnight at 4° C., the plate was washed 2 times with PBS the next day, and then a blocking solution [PBS+2% (w/w) BSA] was added for blocking at room temperature for 2 h. The blocking solution was poured off, and 100 nM gradiently diluted CD19 chimeric antibody or control antibody was added at 50 μl/well. After incubation at 37° C. for 2 h, the plate was washed 3 times with PBS. […] TMB substrate was added at 50 μl/well, and incubated at room temperature for 10 min, and then a stop solution (1.0 N HCl) was added at 50 μl/well. The OD450 nm values were read by an ELISA microplate reader (Multimode Plate Reader, EnSight, purchased from Perkin Elmer).

| OD450 (Human CD19-his protein [1]) | OD450 (Human CD19-his protein [2]) | OD450 (Human CD19-his protein [3]) | OD450 (Human CD19-his protein [4]) | binding result [5] | OD450 (Human CD19-his protein [6]) | OD450 (Human CD19-his protein [7]) | OD450 (Human CD19-his protein [8]) | binding result (murine CD19 protein) | EC50 (read off the curve) (Human CD19-his protein [9]) [nM] | Binder |
| --- | --- | --- | --- | --- | --- | --- | --- | --- | --- | --- |
| 0.24 | 1.06 | 0.06 | 1.35 | no binding | 0.08 | 1.12 | 1.27 | no binding | ~0.03 | F4.15.9 (antibody, human IgG1, V domains shown, human-murine chimeric antibody, human IgG1) VH: QVQLQQSGPELVKPGASVKISCKASGYAFSSSWMNWLKQRPGQGLEWIGRIYPGDGDTNYNGKFKGKATLTADESSSTAYMQLSSLTSVDSAVYFCARGITTIITIAWFASWGQGTLVTVSA VL: QIVLSQSPTILSASPGEKVTMTCRASSSVSYMHWYQQKPGSSPKPWIYATSNLASGVPPRFSGSGSGTSYSLTISRVGAEDAATYYCQQWSSDPWTFGGGTKLEIK |
| 0.12 | 0.76 | 0.05 | 2.02 | no binding | 0.06 | 1.63 | 1.92 | no binding | ~0.2 | F4.180.1 (antibody, human IgG1, V domains shown, human-murine chimeric antibody, human IgG1) VH: EVQLQQSAPELVKPGASVKMSCKTSGYTFTENIIHWVKQTHGKSLEWIGGINPDNGGTSYHQKFKGRTTLTIDKSSSTAYMELRSLTSDDSAVFFCARQAPLYWYFDIWGAGTTVTVSS VL: DIVLTQSPASLAVSLGQRATISCRASESVDSYGNSLMHWFQQKPGQPPRLLIYRASNLESGIPARFSGSGSRTDFTLTITPVEADDVATYYCQQSNEDPWTFGGGTKLEIK |
| 0.29 | 1.05 | 0.08 | 1.56 | no binding | 0.11 | 1.55 | 1.76 | no binding | ~0.06 | F5.2.9 (antibody, human IgG1, V domains shown, human-murine chimeric antibody, human IgG1) VH: QVTLKESGPGILQPSQTLSLTCSFSGFSLSTFGLGVGWVRQPSGKGLEWLAHIWWDDDKYYNPALKSRVTVSKETSKNQVFFKIANVDTADSATYYCARLSRGLRRDVVYAMDHWGQGTSVTVSS VL: DIQMTQTTSSLSASLGDRVTISCRASQDISNYLNWYQQKPDGSVKLLISYVSRLQSGVPSRFRGSGSGTDYSLTISNLDQEDIATYFCQQGIAFPYTFGGGTKLDIK |
| 0.09 | 0.33 | 0.05 | 1.49 | no binding | 0.06 | 1.11 | 1.56 | no binding | ~0.4 | F5.3.6 (antibody, human IgG1, V domains shown, human-murine chimeric antibody, human IgG1) VH: DVQLQESGPGLVKPSQSQSLTCSVTGYSITSGYYWNWIRQFPGNKLEWMGYISYDGSNNYNPSLKNRISITRDTSKNQFFLKLNSVTTEDTVTYYCARAPLTGDRYWYFDVWGTGTTVTVSS VL: DIVLTQSPASLAVSLGQRATISCRASQSVSTSSYSYMHWYQQKPGQTPKLLIKYASNLKSGVPARFSGSGSGTDFTLNIHPVEEEDTATYYCQHSWEIPPTFGGGTKLEIK |
| 0.15 | 0.68 | 0.05 | 1.52 | no binding | 0.07 | 1.48 | 1.76 | no binding | ~0.2 | F5.10.6 (antibody, human IgG1, V domains shown, human-murine chimeric antibody, human IgG1) VH: DVQLQESGPGLVKPSQSLSLTCSVTDYSITSGYYWTWIRQFPGNKLEWMGYISYDGSTNYNPSLKNRFSITRDTSKNQFFLKLNSVIIEDTATYYCARDRMSTTWYFDVWGTGTTVTVSS VL: DIVLTQSPASLAVSLGQRATISCRASESVDNYGISFMHWYQQKPGQPPKLLIYRASKTESGIPARFSGSGSRTDFTLTINPVETDDVATYYCQQSNKYPRTFGGGTKVEIK |
| 0.33 | 1.56 | 0.06 | 2.25 | no binding | 0.09 | 2.14 | 2.14 | no binding | ~0.04 | F4.272.13 (antibody, human IgG1, V domains shown, human-murine chimeric antibody, human IgG1) VH: QVQLKESGPGLVAPSQSLSITCTVSGFSLTDYGVSWIRQPPGKGLEWLGVIWGSETTFYNSALKSRLSISKDNSKSQLFLQMNSLQADDTAIYYCAKHHYYGGSFSMDYWGQGTSVTVSS VL: DIQMTQTTSSLSASLGDRVTISCRASQDINNYLNWYQQKPDGTVKFLIYYTSRLHSGVPSRFSGSGSGTDYSLTISDLEQEDIATYFCQQGNTLPYTFGGGTKLEIK |
| 0.25 | 1.09 | 0.06 | 1.91 | no binding | 0.08 | 1.62 | 1.78 | no binding | ~0.07 | F5.7.1 (antibody, human IgG1, V domains shown, human-murine chimeric antibody, human IgG1) VH: QVTLKESGPGILQPSQTLSLTCSFSGFSLTTFGMGVGWIRQPSGKGLEWLTHIWWDDDKYYNPALKSRLTISKDTSKNQVFLRIANVDTADTATYYCARVITTGVPYFDYWGQGTTLTVSS VL: ENVLTQSPAIMSASPGEKVTMTCRASSSVSSSYLYWYQQKSGASPKLWISSTSNLASGVPARFSGSGSGTSYSLTINSVEAEDAATYYCQQYSGYPWTFGGGTKLEIK |
| 0.28 | 1.09 | 0.06 | 1.98 | no binding | 0.08 | 1.58 | 1.72 | no binding | ~0.07 | F1-mab003 (antibody, human IgG1, V domains shown, human-murine chimeric antibody, human IgG1) VH: EVQLQQSGPELVKPGASVKMSCKASGYTFTDYVMHWVRQTPGQGLEWIGYFNPYNDGTNYNEKFKVKATLTSDKSSTTAYMELSSLTSEDSAVYYCARGVYYYGRDFDYWGQGTTLTVSS VL: DVVLTQTPLSLPVSLGDQASISCRSSQSLENSNGNSYLNWYLQKPGQSPQLLIYRVSNRFSGVLDRFSGSGSGTDFTLKISRVEAEDLGVYFCLQITHVPWTFGGGTKLEIK |
| 0.08 | 0.22 | 0.05 | 0.96 | no binding | 0.06 | 0.69 | 0.93 | no binding | ~0.4 | F5.8.6 (antibody, human IgG1, V domains shown, human-murine chimeric antibody, human IgG1) VH: QVQLHQPGAELVMPGASVTLSCKASGYTFTSYWMHWVKQRPGQGLEWIGEIDPSDSYTTYDQKFKGKATLTVDKFSSTAYMQFSSLTSEDSAVYYCARLTGNHLDYWGQGTTLTVSS VL: DIVMTQSHKFMSSSVGDRVSITCKASQDVSPAVAWYQQKPGQSPKLLIYSTSYRNTGVPDRFTGSGSGTDFTFTISSVQAEDLAVYYCQQHYSIPLTFGAGTKLELK |
| 0.13 | 0.57 | 0.05 | 1.69 | no binding | 0.06 | 1.42 | 1.43 | no binding | ~0.2 | F4.191.1 (antibody, human IgG1, V domains shown, human-murine chimeric antibody, human IgG1) VH: QVQLQQPGAELVRPGASVKLSCKASGYTFTSYWINWVKQRPGQGLEWIGNIHPSDSYTNYNQKFKDKATLTVDKSSSTAYMQFSSPTSEDSAVYYCTREDYYYGSNYDAMDYWGQGTSVTVSS VL: DIVMTQSHKFMSTSVGDRVNITCKASQDVGSSVAWYQQKPGQSPKLLIYWASTRHAGVPDRFTGSGSGADFTLTISNVQSEDLADYFCQQYSTYPLTFGAGTKLELK |
